Target: Ndc80 complex (Ndc80-Flag:Nuf2:Spc24:Spc25) (S. cerevisiae, UniProt P40460 1-691; P33895 1-451; Q04477 1-213; P40014 1-221)
Test: SEC

Chain of Ndc80 complex (Ndc80-Flag:Nuf2:Spc24:Spc25) (P40460 whole entry, chain 1 of 4): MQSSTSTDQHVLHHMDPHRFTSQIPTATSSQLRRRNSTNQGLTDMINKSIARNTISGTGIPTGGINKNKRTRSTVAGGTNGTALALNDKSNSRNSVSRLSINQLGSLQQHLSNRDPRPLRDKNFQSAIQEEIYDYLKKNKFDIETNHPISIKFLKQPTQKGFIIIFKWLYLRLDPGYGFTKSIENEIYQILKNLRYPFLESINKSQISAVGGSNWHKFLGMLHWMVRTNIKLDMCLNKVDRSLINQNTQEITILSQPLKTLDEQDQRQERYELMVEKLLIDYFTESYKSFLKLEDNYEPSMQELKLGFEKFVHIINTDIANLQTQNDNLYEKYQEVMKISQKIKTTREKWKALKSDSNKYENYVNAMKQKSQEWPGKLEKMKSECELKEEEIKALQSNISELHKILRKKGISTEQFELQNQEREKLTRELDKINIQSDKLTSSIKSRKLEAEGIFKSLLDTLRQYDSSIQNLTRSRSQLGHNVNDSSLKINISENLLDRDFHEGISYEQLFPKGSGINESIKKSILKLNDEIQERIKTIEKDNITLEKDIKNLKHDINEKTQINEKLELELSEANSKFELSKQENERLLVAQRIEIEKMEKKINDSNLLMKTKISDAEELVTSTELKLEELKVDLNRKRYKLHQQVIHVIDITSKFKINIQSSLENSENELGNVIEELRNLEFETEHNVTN
Chain of Ndc80 complex (Ndc80-Flag:Nuf2:Spc24:Spc25) (P33895 whole entry, chain 2 of 4): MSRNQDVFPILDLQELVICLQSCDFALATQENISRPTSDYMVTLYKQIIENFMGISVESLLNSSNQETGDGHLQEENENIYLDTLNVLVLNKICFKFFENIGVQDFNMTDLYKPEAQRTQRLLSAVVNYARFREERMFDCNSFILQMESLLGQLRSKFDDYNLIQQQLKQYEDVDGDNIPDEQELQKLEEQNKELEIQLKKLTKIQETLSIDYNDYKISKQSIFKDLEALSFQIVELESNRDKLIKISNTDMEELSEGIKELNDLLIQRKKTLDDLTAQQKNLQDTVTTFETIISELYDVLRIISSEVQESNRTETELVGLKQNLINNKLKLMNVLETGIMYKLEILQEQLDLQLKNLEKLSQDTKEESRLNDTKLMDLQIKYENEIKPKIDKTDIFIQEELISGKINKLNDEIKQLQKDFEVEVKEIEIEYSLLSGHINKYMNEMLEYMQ
Chain of Ndc80 complex (Ndc80-Flag:Nuf2:Spc24:Spc25) (Q04477 whole entry, chain 3 of 4): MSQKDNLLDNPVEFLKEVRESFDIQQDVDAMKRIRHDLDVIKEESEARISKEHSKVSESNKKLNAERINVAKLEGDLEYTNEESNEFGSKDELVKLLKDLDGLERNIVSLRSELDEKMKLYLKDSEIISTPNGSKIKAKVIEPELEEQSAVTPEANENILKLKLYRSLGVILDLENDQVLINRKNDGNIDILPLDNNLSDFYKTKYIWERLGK
Chain of Ndc80 complex (Ndc80-Flag:Nuf2:Spc24:Spc25) (P40014 whole entry, chain 4 of 4): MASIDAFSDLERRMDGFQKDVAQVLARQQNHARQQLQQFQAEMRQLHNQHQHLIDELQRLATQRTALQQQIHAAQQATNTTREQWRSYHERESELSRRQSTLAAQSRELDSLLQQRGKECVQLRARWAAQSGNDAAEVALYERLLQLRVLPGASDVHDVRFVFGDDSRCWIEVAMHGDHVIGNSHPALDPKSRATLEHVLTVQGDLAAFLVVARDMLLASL

Row | binding result | Binder
1 | binds | StrepII-tagged full-length Mps1 (wild type) (natural protein, S. cerevisiae, UniProt P54199 1-764, looked up) MSTNSFHDYVDLKSRTNTRQFSDDEEFTTPPKLSNFGSALLSHTEKTSASEILSSHNNDKIANRLEEMDRSSSRSHPPPSMGNLTSGHTSTSSHSTLFGRYLRNNHQTSMTTMNTSDIEINVGNSLDKSFERIRNLRQNMKEDITAKYAERRSKRFLISNRTTKLGPAKRAMTLTNIFDEDVPNSPNQPINARETVELPLEDSHQTNFKETKRNTDYDSIDFGDLNPIQYIKKHNLPTSDLPLISQIYFDKQREENRQAALRKHSSRELLYKSRSSSSSLSSNNLLANKDNSITSNNGSQPRRKVSTGSSSSKSSIEIRRALKENIDTSNNSNFNSPIHKIYKGISRNKDSDSEKREVLRNISINANHADNLLQQENKRLKRSLDDAITNENINSKNLEVFYHRPAPKPPVTKKVEIVEPAKSASLSNNRNIITVNDSQYEKIELLGRGGSSRVYKVKGSGNRVYALKRVSFDAFDDSSIDGFKGEIELLEKLKDQKRVIQLLDYEMGDGLLYLIMECGDHDLSQILNQRSGMPLDFNFVRFYTKEMLLCIKVVHDAGIVHSDLKPANFVLVKGILKIIDFGIANAVPEHTVNIYRETQIGTPNYMAPEALVAMNYTQNSENQHEGNKWKVGRPSDMWSCGCIIYQMIYGKPPYGSFQGQNRLLAIMNPDVKIPFPEHTSNNEKIPKSAIELMKACLYRNPDKRWTVDKVLSSTFLQPFMISGSIMEDLIRNAVRYGSEKPHISQDDLNDVVDTVLRKFADYKI
2 | binds | StrepII-tagged full-length Mps1^bp (R151D R152D R155D) (natural protein, S. cerevisiae, UniProt P54199 1-764, looked up) MSTNSFHDYVDLKSRTNTRQFSDDEEFTTPPKLSNFGSALLSHTEKTSASEILSSHNNDKIANRLEEMDRSSSRSHPPPSMGNLTSGHTSTSSHSTLFGRYLRNNHQTSMTTMNTSDIEINVGNSLDKSFERIRNLRQNMKEDITAKYAEDDSKDFLISNRTTKLGPAKRAMTLTNIFDEDVPNSPNQPINARETVELPLEDSHQTNFKETKRNTDYDSIDFGDLNPIQYIKKHNLPTSDLPLISQIYFDKQREENRQAALRKHSSRELLYKSRSSSSSLSSNNLLANKDNSITSNNGSQPRRKVSTGSSSSKSSIEIRRALKENIDTSNNSNFNSPIHKIYKGISRNKDSDSEKREVLRNISINANHADNLLQQENKRLKRSLDDAITNENINSKNLEVFYHRPAPKPPVTKKVEIVEPAKSASLSNNRNIITVNDSQYEKIELLGRGGSSRVYKVKGSGNRVYALKRVSFDAFDDSSIDGFKGEIELLEKLKDQKRVIQLLDYEMGDGLLYLIMECGDHDLSQILNQRSGMPLDFNFVRFYTKEMLLCIKVVHDAGIVHSDLKPANFVLVKGILKIIDFGIANAVPEHTVNIYRETQIGTPNYMAPEALVAMNYTQNSENQHEGNKWKVGRPSDMWSCGCIIYQMIYGKPPYGSFQGQNRLLAIMNPDVKIPFPEHTSNNEKIPKSAIELMKACLYRNPDKRWTVDKVLSSTFLQPFMISGSIMEDLIRNAVRYGSEKPHISQDDLNDVVDTVLRKFADYKI
